The record followed here is PMC11418285.

In one assay the target is FcγRI (CD64) (human) (UniProt P12314).
In assay [1] the target is FcγRIIIa (CD16a) 158F allele (human) (UniProt P08637).
Chain of UniProt P08637 (P08637 17-254): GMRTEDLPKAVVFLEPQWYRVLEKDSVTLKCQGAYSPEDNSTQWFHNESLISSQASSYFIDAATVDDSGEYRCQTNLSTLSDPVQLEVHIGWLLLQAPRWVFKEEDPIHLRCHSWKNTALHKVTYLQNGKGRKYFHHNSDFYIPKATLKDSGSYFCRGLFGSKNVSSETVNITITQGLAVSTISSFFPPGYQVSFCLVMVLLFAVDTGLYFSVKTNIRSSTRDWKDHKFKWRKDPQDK

Chain of UniProt P12314 (P12314 16-374): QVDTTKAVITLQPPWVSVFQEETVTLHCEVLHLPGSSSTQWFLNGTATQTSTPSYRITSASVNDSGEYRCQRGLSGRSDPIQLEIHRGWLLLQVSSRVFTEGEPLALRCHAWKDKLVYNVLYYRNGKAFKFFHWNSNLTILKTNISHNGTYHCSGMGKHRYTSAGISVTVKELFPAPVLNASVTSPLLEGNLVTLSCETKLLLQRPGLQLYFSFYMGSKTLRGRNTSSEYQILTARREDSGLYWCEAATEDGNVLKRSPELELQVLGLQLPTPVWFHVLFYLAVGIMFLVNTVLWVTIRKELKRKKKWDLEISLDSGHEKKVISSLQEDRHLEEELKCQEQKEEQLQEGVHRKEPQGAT

Consider “anti-CD20 antibody with rituximab V regions, human IgG1 S239D A330L I332E”, for which the ADCP activity, Fc effector cell reporter bioassay, relative to wild-type IgG1 with FcγRI (CD64) (human) amounted to 1.87 fold.
Substance “anti-CD20 antibody with rituximab V regions, afucosylated wild-type human IgG1” gave an ADCC activity, Fc effector cell reporter bioassay, relative to wild-type IgG1 in assay [1] of 201 fold.
